The text below walks through data of PMC5627055, “Interactions of the Bacillus subtilis DnaE polymerase with replisomal proteins modulate its activity and fidelity” (Open Biology, 2017).

Data set [1] deals with T1, Bacillus subtilis PolC_(exo-) (D425A/E427A) (B. subtilis, UniProt P13267 1-1437, D425A | E427A).
T1 construct: p2BT-NT-HT-PolC_(exo-); source: E. coli BLR(DE3), purified (HisTrap, TEV cleavage, HisTrap flow through, HiTrap Q, Superdex-200); not shown: His-tag, N-terminal, cleaved
In words: native gel or EMSA; DnaE (1 µM) pre-incubated with radiolabelled primed 3'-mismatch (A:G) DNA substrate (0.66 nM) at 37°C for 5 min, then increasing PolC or PolC_(exo-) (25-1000 nM) and 5 min more at 37°C; 20 mM HEPES pH 7.5, 50 mM NaCl, 10 mM MgCl2, 1 mM DTT; 5% native polyacrylamide gel; ternary template-DnaE-PolC complex read from the shifted DNA. The following applies: both partners purified. In general terms: In EMSA bound probe runs differently from free probe, usually more slowly.

Data set [2] has as its target T2, Bacillus subtilis PolC polymerase, wild type (B. subtilis, UniProt P13267 1-1437).
T2 construct: PolC, DNA polymerase of the C family with internal 3'>5' exonuclease domain, Bacillus subtilis; polC gene cloned into p2BT (p2BT-NT-HT-PolC); The N-terminal His-tag was removed with TEV protease during purification; also called wild-type PolC; source: E. coli BLR(DE3), purified (HisTrap, TEV cleavage, HisTrap flow through, HiTrap Q, Superdex-200); not shown: His-tag, N-terminal, cleaved
Described as above. The following applies: both partners purified.

Data set [3] concerns the target T3, PolCexo- (Bacillus subtilis, UniProt P13267 1-1437, D425A;E427A). In words: EMSA; 10 mM Mg2+; no detectable stable complex; EMSA: 20 mM HEPES pH 7.5, 50 mM NaCl, 10 mM MgCl2, 1 mM DTT, 0.66 nM radiolabelled substrate, 37 C 5 min; 5% native PAGE. The following applies: protein: recombinant; tags: N-terminal His tag removed by TEV; 15 bp duplex; 15 nt 5' overhang of template (primer-template).

The target of data set [4] is T4, DnaE (Bacillus subtilis, UniProt O34623 1-1115). The experiment in a line: EMSA; 10 mM Mg2+; EMSA: 20 mM HEPES pH 7.5, 50 mM NaCl, 10 mM MgCl2, 1 mM DTT, 0.66 nM radiolabelled substrate, 37 C 5 min; 5% native PAGE. The following applies: protein: recombinant; tags: N-terminal His6-MBP removed by TEV; 15 bp duplex; 15 nt 5' overhang of template (primer-template).
The target in data set [5] is T4, DnaE. In words: EMSA; 10 mM Mg2+; multiple shifted bands; EMSA: 20 mM HEPES pH 7.5, 50 mM NaCl, 10 mM MgCl2, 1 mM DTT, 0.66 nM radiolabelled substrate, 37 C 5 min; 5% native PAGE. The following applies: protein: recombinant; tags: N-terminal His6-MBP removed by TEV; label: radiolabel at 5' end; single strand.
For data set [6], the target named is T4, DnaE. In words: EMSA; 10 mM Mg2+; 1 uM DnaE; EMSA: 20 mM HEPES pH 7.5, 50 mM NaCl, 10 mM MgCl2, 1 mM DTT, 0.66 nM radiolabelled substrate, 37 C 5 min; 5% native PAGE. The following applies: protein: recombinant; tags: N-terminal His6-MBP removed by TEV; 14 bp duplex; 3'-terminal primer mismatch; 15 nt 5' overhang of template.
Another data set has as its target DnaE;PolC (Bacillus subtilis;Bacillus subtilis, UniProt O34623;P13267 1-1115;1-1437, |). In words: EMSA; 10 mM Mg2+; 1 uM DnaE, 25-1000 nM PolC; ternary complex, then DNA digested by PolC; EMSA: 20 mM HEPES pH 7.5, 50 mM NaCl, 10 mM MgCl2, 1 mM DTT, 0.66 nM radiolabelled substrate, 37 C 5 min; 5% native PAGE. The following applies: protein: recombinant;recombinant; tags: N-terminal His6-MBP removed by TEV;N-terminal His tag removed by TEV; copies: 1;1; 14 bp duplex; 3'-terminal primer mismatch; 15 nt 5' overhang of template.

Data set [7] deals with T3, PolCexo-. The experiment in a line: EMSA; 10 mM Mg2+; 1 uM PolCexo-; no detectable stable complex; EMSA: 20 mM HEPES pH 7.5, 50 mM NaCl, 10 mM MgCl2, 1 mM DTT, 0.66 nM radiolabelled substrate, 37 C 5 min; 5% native PAGE. The following applies: protein: recombinant; tags: N-terminal His tag removed by TEV; 14 bp duplex; 3'-terminal primer mismatch; 15 nt 5' overhang of template.

A further data set concerns the target DnaE;PolCexo- (Bacillus subtilis;Bacillus subtilis, UniProt O34623;P13267 1-1115;1-1437, |D425A;E427A). The experiment in a line: EMSA; 10 mM Mg2+; 1 uM DnaE, 25-1000 nM PolCexo-; ternary complex; EMSA: 20 mM HEPES pH 7.5, 50 mM NaCl, 10 mM MgCl2, 1 mM DTT, 0.66 nM radiolabelled substrate, 37 C 5 min; 5% native PAGE. The following applies: protein: recombinant;recombinant; tags: N-terminal His6-MBP removed by TEV;N-terminal His tag removed by TEV; copies: 1;1; 14 bp duplex; 3'-terminal primer mismatch; 15 nt 5' overhang of template.

B1: Bacillus subtilis DnaE polymerase, wild type (enzyme, B. subtilis, UniProt O34623 1-1115, looked up)
chain: MSFVHLQVHSGYSLLNSAAAVEELVSEADRLGYASLALTDDHVMYGAIQFYKACKARGINPIIGLTASVFTDDSELEAYPLVLLAKSNTGYQNLLKISSVLQSKSKGGLKPKWLHSYREGIIAITPGEKGYIETLLEGGLFEQAAQASLEFQSIFGKGAFYFSYQPFKGNQVLSEQILKLSEETGIPVTATGDVHYIRKEDKAAYRCLKAIKAGEKLTDAPAEDLPDLDLKPLEEMQNIYREHPEALQASVEIAEQCRVDVSLGQTRLPSFPTPDGTSADDYLTDICMEGLRSRFGKPDERYLRRLQYELDVIKRMKFSDYFLIVWDFMKHAHEKGIVTGPGRGSAAGSLVAYVLYITDVDPIKHHLLFERFLNPERVSMPDIDIDFPDTRRDEVIQYVQQKYGAMHVAQIITFGTLAAKAALRDVGRVFGVSPKEADQLAKLIPSRPGMTLDEARQQSPQLDKRLRESSLLQQVYSIARKIEGLPRHASTHAAGVVLSEEPLTDVVPLQEGHEGIYLTQYAMDHLEDLGLLKMDFLGLRNLTLIESITSMIEKEENIKIDLSSISYSDDKTFSLLSKGDTTGIFQLESAGMRSVLKRLKPSGLEDIVAVNALYRPGPMENIPLFIDRKHGRAPVHYPHEDLRSILEDTYGVIVYQEQIMMIASRMAGFSLGEADLLRRAVSKKKKEILDRERSHFVEGCLKKEYSVDTANEVYDLIVKFANYGFNRSHAVAYSMIGCQLAYLKAHYPLYFMCGLLTSVIGNEDKISQYLYEAKGSGIRILPPSVNKSSFPFTVENGSVRYSLRAIKSVGVSAVKDIYKARKEKPFEDLFDFCFRVPSKSVNRKMLEALIFSGAMDEFGQNRATLLASIDVALEHAELFAADDDQMGLFLDESFSIKPKYVETEELPLVDLLAFEKETLGIYFSNHPLSAFRKQLTAQGAVSILQAQRAVKRQLSLGVLLSKIKTIRTKTGQNMAFLTLSDETGEMEAVVFPEQFRQLSPVLREGALLFTAGKCEVRQDKIQFIMSRAELLEDMDAEKAPSVYIKIESSQHSQEILAKIKRILLEHKGETGVYLYYERQKQTIKLPESFHINADHQVLYRLKELLGQKNVVLKQW
notes: DnaE, DNA polymerase of the C family (DnaE3 group), Bacillus subtilis; dnaE gene cloned into p2CT (p2CT-NT-HT-DnaE); also called DnaEWT; source: E. coli BL21 (DE3) Rosetta, purified (HisTrap, TEV cleavage, HisTrap flow through, ammonium sulfate, HiTrap Q); not shown: His6, N-terminal, cleaved
Consider B1, for which the binding result in data set [1] and in data set [2] was “binds” in each case.

B2: DNA-primed 30mer template (dsDNA)
DNA 1: ACACACACACACACACACACACACCCCCTT
DNA 2: AAGGGGGTGTGTGTG
Regarding B2, the binding result was “no binding” with PolCexo- [3] and “binds” in the data set with DnaE [4].
ACACACACACACACACACACACACCCCCTT (ssDNA) [ssDNA 30mer]: the binding result in the data set with DnaE [5] is “binds”.

B3: 3'-mismatch (A:G) DNA-primed 30mer template (dsDNA)
DNA 1: ACACACACACACACACACACACACCCCCTT
DNA 2: AAGGGGGTGTGTGTA
With B3, the binding result with DnaE [6] was “binds”; with DnaE;PolC, “binds”; with PolCexo- [7], “no binding”. Further, the binding signal with DnaE;PolCexo- is ~4 fold shifted substrate vs DnaE alone (up to).
